Laboratory results taken from patent US20210340531A1 (YALE UNIVERSITY, published 2021).
One block for each binder: values may come before it.

Assays:
[1] = biological target: the molecule itself; test: in vitro filament assembly, negative-stain electron microscopy
Protocol: Filament assembly was terminated after 10 min by adding stop buffer (0.2% glutaraldehyde, 20 mM KCl, 0.7 mM NaHPO). Filament samples were immediately applied to a Carbon type B-400 mesh-Copper grid charged with Pelco easiGlow (Ted Pella, Redding, Calif.) at 25 mA for 30s, and negatively stained using 2% aqueous uranyl acetate. Images were captured with a Talos L120C Electron Microscope from FEI (Hillsboro, Oreg.).
Protein production and purification: Full-length wild-type K1, K10, K8, K18, and vimentin constructs in pET-21a(+) or pET-24a(+) based plasmids are used. K1, K8, and vimentin knob mutants (both individual [FA, LA] and double [FLAA] residue mutants) are also used. K10 is expressed in E. coli BL21(DE3)pLysS cells at 20° C. for 72 hours using an autoinduction method. Expression of all other keratins and vimentins occur in E. coli BL21(DE3) cells using LB at 37° C. for 3 hours with 1 mM IPTG for induction. […]
Electron microscopy: Filament samples are immediately applied to a Carbon type B-400 mesh-Copper grid charged with Pelco easiGlow (Ted Pella, Redding, Calif.) at 25 mA for 30s, and negatively stained using 2% aqueous uranyl acetate. […] Images are analyzed for the number, length, width, and shape of filamentous structures formed at each timepoint to evaluate the dynamics of IF assembly in vitro for both wild-type and knob mutant proteins.

gel filtration = biological target: the molecule itself; test: gel filtration
keratin 10 helix 1B [2] = biological target: T1, keratin 10 helix 1B (human, UniProt P13645 195-296); test: K1 knob mutants with K10-1B
T1 construct: Single chain of the K1/K10-1B complex; His6 tag removed with thrombin before gel filtration, light scattering and crystallization; also called K10-1B; K10

keratin 10 helix 1B [3] = biological target: T1, keratin 10 helix 1B; test: X-ray crystal structure, asymmetric unit
Protocol: The final model of the K1^S233L/K10-1B mutant crystal asymmetric unit contained one K1-1B S233L and one K10-1B molecules. The final Ramachandran statistics were: residues in favorable regions, 99%; in allowed regions, 1%; in outlier regions, 0%. Electrostatics were calculated using PDB2PQR and Adaptive Poisson-Boltzmann Software (APBS). Structural analyses were performed using Coot, UCSF Chimera (Resource for Biocomputing, Visualization, and Informatics, University of California, San Francisco), WHAT IF, ESBRI, and PDBePISA (The European Bioinformatics Institute, European Molecular Biology Laboratory, UK). Figures were prepared using UCSF Chimera and Adobe Illustrator. Atomic coordinates and structure factors have been deposited in the Protein Data Bank under the accession code TBD.
Mutant K1/K10-1B (22.8 mg/ml) in 100 mM Tris-HCl buffer (pH 7.4) containing 200 mM NaCl was crystallized using 100 mM Tris buffer (pH 8.5) containing 1.5M ammonium sulfate and 12% glycerol. Crystals were soaked 1-3 min in a cryoprotectant solution containing 27% glycerol in mother liquor prior to flash-freezing in liquid nitrogen. One native data set on a single crystal was collected (λ=0.9795 Å). The native crystal belonged to the hexagonal space group P6 22 (cell dimensions: a=93.29 Å, b=93.29 Å, c=124.74 Å, α=β=90, γ=120). […]

B1: full-length wild-type K1/K10 heterodimeric complex (other)
chain 1: MSRQFSSRSGYRSGGGFSSGSAGIINYQRRTTSSSTRRSGGGGGRFSSCGGGGGSFGAGGGFGSRSLVNLGGSKSISISVARGGGRGSGFGGGYGGGGFGGGGFGGGGFGGGGIGGGGFGGFGSGGGGFGGGGFGGGGYGGGYGPVCPPGGIQEVTINQSLLQPLNVEIDPEIQKVKSREREQIKSLNNQFASFIDKVRFLEQQNQVLQTKWELLQQVDTSTRTHNLEPYFESFINNLRRRVDQLKSDQSRLDSELKNMQDMVEDYRNKYEDEINKRTNAENEFVTIKKDVDGAYMTKVDLQAKLDNLQQEIDFLTALYQAELSQMQTQISETNVILSMDNNRSLDLDSIIAEVKAQNEDIAQKSKAEAESLYQSKYEELQITAGRHGDSVRNSKIEISELNRVIQRLRSEIDNVKKQISNLQQSISDAEQRGENALKDAKNKLNDLEDALQQAKEDLARLLRDYQELMNTKLALDLEIATYRTLLEGEESRMSGECAPNVSVSVSTSHTTISGGGSRGGGGGGYGSGGSSYGSGGGSYGSGGGGGGGRGSYGSGGSSYGSGGGSYGSGGGGGGHGSYGSGSSSGGYRGGSGGGGGGSSGGRGSGGGSSGGSIGGRGSSSGGVKSSGGSSSVRFVSTTYSGVTR
chain 2: MSVRYSSSKHYSSSRSGGGGGGGGCGGGGGVSSLRISSSKGSLGGGFSSGGFSGGSFSRGSSGGGCFGGSSGGYGGLGGFGGGSFRGSYGSSSFGGSYGGIFGGGSFGGGSFGGGSFGGGGFGGGGFGGGFGGGFGGDGGLLSGNEKVTMQNLNDRLASYLDKVRALEESNYELEGKIKEWYEKHGNSHQGEPRDYSKYYKTIDDLKNQILNLTTDNANILLQIDNARLAADDFRLKYENEVALRQSVEADINGLRRVLDELTLTKADLEMQIESLTEELAYLKKNHEEEMKDLRNVSTGDVNVEMNAAPGVDLTQLLNNMRSQYEQLAEQNRKDAEAWFNEKSKELTTEIDNNIEQISSYKSEITELRRNVQALEIELQSQLALKQSLEASLAETEGRYCVQLSQIQAQISALEEQLQQIRAETECQNTEYQQLLDIKIRLENEIQTYRSLLEGEGSSGGGGRGGGSFGGGYGGGSSGGGSSGGGHGGGHGGSSGGGYGGGSSGGGSSGGGYGGGSSSGGHGGSSSGGYGGGSSGGGGGGYGGGSSGGGSSSGGGYGGGSSSGGHKSSSSGSVGESSSKGPRY
notes: also called WT K1/K10
binding result [1]: binds

B2: K1-L318A/10-1B mutant heterodimer (other)
chain 1: NLEPYFESFINNLRRRVDQLKSDQSRLDSELKNMQDMVEDYRNKYEDEINKRTNAENEFVTIKKDVDGAYMTKVDLQAKLDNLQQEIDFLTAAYQAELSQMQTQIS
chain 2: not shown
notes: also called L318A^K1 (LA); K1-L318A/K10-1B
binding result (gel filtration): binds

B3: K1-F314A/10-1B mutant heterodimer (other)
chain 1: NLEPYFESFINNLRRRVDQLKSDQSRLDSELKNMQDMVEDYRNKYEDEINKRTNAENEFVTIKKDVDGAYMTKVDLQAKLDNLQQEIDALTALYQAELSQMQTQIS
chain 2: not shown
notes: also called F314A^K1 (FA); K1-F314A/K10-1B
binding result (gel filtration): no binding

B4: K1 F314A+L318A (FLAA)/K10-1B double mutant heterodimer (other)
chain 1: NLEPYFESFINNLRRRVDQLKSDQSRLDSELKNMQDMVEDYRNKYEDEINKRTNAENEFVTIKKDVDGAYMTKVDLQAKLDNLQQEIDALTAAYQAELSQMQTQIS
chain 2: not shown
notes: also called F314A^K1+L318A^K1
binding result (gel filtration): no binding

binding result (keratin 10 helix 1B [2]): binds
B5: keratin 1 helix 1B L318A (other)
chain: NLEPYFESFINNLRRRVDQLKSDQSRLDSELKNMQDMVEDYRNKYEDEINKRTNAENEFVTIKKDVDGAYMTKVDLQAKLDNLQQEIDFLTAAYQAELSQMQTQIS
notes: Single chain; also called K1-1B mutant L318A; LA

binding result (keratin 10 helix 1B [2]): binds
B6: keratin 1 helix 1B F314A+L318A (other)
chain: NLEPYFESFINNLRRRVDQLKSDQSRLDSELKNMQDMVEDYRNKYEDEINKRTNAENEFVTIKKDVDGAYMTKVDLQAKLDNLQQEIDALTAAYQAELSQMQTQIS
notes: Single chain; also called K1-1B mutant F314A+L318A; FLAA

binding result (keratin 10 helix 1B [3]): binds
B7: keratin 1 helix 1B S233L (other)
chain: NLEPYFELFINNLRRRVDQLKSDQSRLDSELKNMQDMVEDYRNKYEDEINKRTNAENEFVTIKKDVDGAYMTKVDLQAKLDNLQQEIDFLTALYQAELSQMQTQIS
notes: Single chain of the mutant complex; also called K1^S233L-1B; K1-1B S233L

B8: full-length wild-type K8/K18 heterodimeric complex (other, human)
chain 1: MSIRVTQKSYKVSTSGPRAFSSRSYTSGPGSRISSSSFSRVGSSNFRGGLGGGYGGASGMGGITAVTVNQSLLSPLVLEVDPNIQAVRTQEKEQIKTLNNKFASFIDKVRFLEQQNKMLETKWSLLQQQKTARSNMDNMFESYINNLRRQLETLGQEKLKLEAELGNMQGLVEDFKNKYEDEINKRTEMENEFVLIKKDVDEAYMNKVELESRLEGLTDEINFLRQLYEEEIRELQSQISDTSVVLSMDNSRSLDMDSIIAEVKAQYEDIANRSRAEAESMYQIKYEELQSLAGKHGDDLRRTKTEISEMNRNISRLQAEIEGLKGQRASLEAAIADAEQRGELAIKDANAKLSELEAALQRAKQDMARQLREYQELMNVKLALDIEIATYRKLLEGEESRLESGMQNMSIHTKTTSGYAGGLSSAYGGLTSPGLSYSLGSSFGSGAGSSSFSRTSSSRAVVVKKIETRDGKLVSESSDVLPK
chain 2: MSFTTRSTFSTNYRSLGSVQAPSYGARPVSSAASVYAGAGGSGSRISVSRSTSFRGGMGSGGLATGIAGGLAGMGGIQNEKETMQSLNDRLASYLDRVRSLETENRRLESKIREHLEKKGPQVRDWSHYFKIIEDLRAQIFANTVDNARIVLQIDNARLAADDFRVKYETELAMRQSVENDIHGLRKVIDDTNITRLQLETEIEALKEELLFMKKNHEEEVKGLQAQIASSGLTVEVDAPKSQDLAKIMADIRAQYDELARKNREELDKYWSQQIEESTTVVTTQSAEVGAAETTLTELRRTVQSLEIDLDSMRNLKASLENSLREVEARYALQMEQLNGILLHLESELAQTRAEGQRQAQEYEALLNIKVKLEAEIATYRRLLEDGEDFNLGDALDSSNSMQTIQKTTTRRIVDGKVVSETNDTKVLRH
notes: also called K8/18
binding result [1]: binds
